Changes are numbered by the printed parent chain.

This note sets out measurements from US20140289906A1, “Compositions Having Dicamba Decarboxylase Activity and Methods of Use” (priority 2013, published 2014).

The nature of data set [1]: 14C assay: 14CO2 capture from [14C]-carboxyl-labeled dicamba with purified protein. The format is biochemical.
Data set [2] is described as follows: GC/MS detection of 2,5-dichloro anisole (2,5-DCA), toluene trapping or head-space. The settings on record: purified protein, dicamba, toluene capturing. The format is biochemical. As for the experimental part:
Alternatively, dicamba decarboxylase activity can be monitored by measuring decarboxylation products other than CO2 using product detection methods. The decarboxylation product of dicamba, 2,5-dichloro anisole or 2,5-DCA (FIG. 1C), is a volatile compound with a flash point of 21° C. To capture this volatile compound for detection, 140 ul of toluene solution is added on top of 1 ml reaction mixture to form a trapping layer in a 1.5 ml eppendorf tube. […] The reaction is kept still at room temperature overnight before being vortex mixed and centrifuged at 14,000 rpm for 15 minutes. The top toluene phase is carefully removed using a micropipette and transferred into a 12×32 mm polypropylene vial (Vial 11 mm) from MicroLiter Analytical Supplies, Inc. (catalog number 11-5300-100). The vial is sealed with Crimp seal (11 mm with FEP/Nat Rubber) from MicroLiter Analytical Supplies, Inc. (catalog number 11-0020A) using a E-Z Crimper™ 11 mm from Wheaton Inc. 1 ul of the toluene mixture is taken from the sealed vials and injected in splitless mode into a GC/MS system for sample analysis (Agilent GC/MS system with a 6890A GC, a 5973N MSD and a CTC CombiPAL auto-sampler or with a 7890A GC, a 5975C MSD and an Agilent GC Sampler 80 auto-sampler). The GC parameters are: Agilent DB-5MS column (30 m length, 0.25 mm diameter, 0.25 um film) or equivalent; The GC inlet temperature, 250° C.; Carry gas, helium in constant flow mode (1.2 mL/min); The GC oven temperature program, initial temperature at 70° C. for 1 min, ramping to 200° C. at 15° C./min, and then ramping to 250° C. at 30° C./min. MS data acquisition is done in SIM (selected ion monitoring) mode, monitoring the positive ion at M/Z 176 for the molecular ion of […]. The solvent delay for MS acquisition is set at 4 min. Another method for detection of 2,5-DCA is a head-space GC/MS method. Briefly, reaction mixtures in 500 ul reaction volume are prepared in 1.5 ml 12×32 mm glass vials (Microliter Analytical Supplies, Cat#11-1200) for head space analysis. Glass vials are sealed with magnetic cap from MicroLiter Analytical Supplies, Inc. (catalog number 11-0030AT) using a E-Z Crimper™ 11 mm from Wheaton Industries Inc. The reaction is carried out at room temperature for various amount of time and stopped by heating at 95° C. for 5 min. The reaction vial is transferred to a agitator for incubation at 80° C. for 5 min at 500 rpm. With a syringe preheated at 80° C., 1000 uL of head space is injected with sample fill speed at 100 uL/sec. GC/MS parameters for headspace analysis are the same as for liquid sample analysis.

A short description of data set [3]: LC-MS/MS detection of 4-chloro-3-methoxy phenol. Conditions: purified protein, dicamba. The format is biochemical.
Data set [4] can be described thus: GC/MS detection of 2,5-dichloro phenol (2,5-DCP); kinetic determination. The format is biochemical. Conditions: purified protein, dicamba.
Data set [5] is described as follows: Dicamba decarboxylation activity of computationally designed protein variants and parents (Tables 4, 5). The settings on record: native proteins and designed variants; assay not specified.
The nature of data set [6]: 14C assay: 14CO2 capture from [14C]-carboxyl-labeled dicamba with IPTG-induced recombinant E. coli cells. The settings on record: dicamba decarboxylation activity.
Data set [7] is described as follows: Enzyme kinetic characterization (kcat, KM, kcat/KM) of dicamba decarboxylase variants (Table 9).

B1: 121 (protein)
chain: MAIIDCHGHYTTTPKGVEDYRNAQKAAVAKDPSFKGEKGQVVVSDDEIRESIENNQLKMQRERGTDLTIFSPRWDAGGHHIGNEYTSQFWTEHQNDLIRRVCDLFPKNFAPVAQLPQSPGVDPAKSVPEIVRTVEQMGFIGINLNPDPSGGYWKDTSLADRAFYPIYEKMVEYDIPAMIHPRLACNACFHTGLSVGLGADTTGFQQLIMSDVFKDFPSLKIIIPHGGGAVPYHWGRFRGLMQDQGYAPLEESALKNIYFDTCVYHQRGIDLLLDIVPTQNILFASEMIGAVRGIDPETGHNFDDTKRYIDNNTALNAEEKAMIFEGNARRVFSRLKTD
modifications: Dicamba decarboxylase variant clone DC.12.014
For the molecule B1, in data set [1], the CO2 product detected entry was “not detected”. Moreover, the “2,5-DCA product detected” value in data set [2] was “detected”. Moreover, in data set [3], the “4-chloro-3-methoxy phenol product detected” value is on record as “not detected”. For the same molecule, in data set [4], the “2,5-DCP product detected” value is “not detected”. Further, the “dicamba decarboxylase activity (statement in the description)” value in data set [5] is recorded as “have dicamba decarboxylase activity”. Besides, in data set [6], the “Enzymatic Detection level” value is given as “High”.

B2: 122 (protein)
chain: B1 chain with W74S, D75T, L183N, A187D, G192T, L193G, V195H, G196A, E286D
modifications: Dicamba decarboxylase variant clone DC.12.103
For the molecule B2, in data set [1], the CO2 product detected result is given as “not detected”. For the same molecule, the “2,5-DCA product detected” value in data set [2] was “detected”. Moreover, the “4-chloro-3-methoxy phenol product detected” value in data set [3] was “not detected”. Moreover, the “2,5-DCP product detected” value in data set [4] is recorded as “not detected”. Also, in data set [5], the “dicamba decarboxylase activity (statement in the description)” value is “have dicamba decarboxylase activity”. Moreover, the “Enzymatic Detection level” value in data set [6] is reported as “High”.

B3: 123 (protein)
chain: MAQGKVALEEHFAIPETLQDSAGFVPGDYWKELQHRLLDIQDTRLKLMDAHGIETMILSLAAPAVQAIPDRRKAIEIARRANDVLAEECAKRPDRFLAFAALPLQDPDAATEELQRCVNDLGFVGALVNGFSQEGDGQTPLYYDLPQYRPFWGEVEKLDVPFYLHPRNPLPQDSRIYDGHPWLLGPTWAFAQETAVHALRLMASGLFDEHPRLNIILGHMGEGLPYMMWRIDHRVAWVKLPPRYPAKRRFMDYFNENFHITTSGNFRTQTLIDAILEIGADRILFSTDWPFENIDHASDWFNATSIAEADRVKIGRTNARRLFKLDGA
modifications: Dicamba decarboxylase variant clone S03902153
For the molecule B3, the “protein kinetic activity (substrate concentration versus reaction velocity) over SEQ ID NO:109” value in data set [7] (FIG. 6) is “improvement”. Besides, in data set [6], the “Enzymatic Detection level” value was “High”.

B4: 126 (protein)
chain: B3 chain with V84F, W229Y, V235I, S298A
modifications: Dicamba decarboxylase variant clone S03970792
As for B4, the kcat in data set [7] (substrate dicamba, purified protein) was determined as 0.03967 s⁻¹. Moreover, the “Enzymatic Detection level” value in data set [6] is “High”.
